Assay results published in paper PMC10066265, “Inhibitor-3 inhibits Protein Phosphatase 1 via a metal binding dynamic protein–protein interaction” (Nature Communications, 2023).
Where “and” joins values, the source holds several entries; their conditions need not be identical. Identical values can stand only once.

Columns and labels:
His6-PP1α_(7-330) [1] = biological target: T1, His6-PP1α_(7-330) (UniProt P62136 7-330); assay: cell-based or functional assay
His6-PP1α_(7-330) [2] = biological target: T1, His6-PP1α_(7-330); assay: SPR; His6-PP1 captured on a Ni-NTA sensorchip (NiHC200M), I3 variants injected; 25 °C; 20 mM Tris pH 8.0, 500 mM NaCl, 1 mM MnCl2, 0.5 mM TCEP, 0.05% Tween-20; one-to-one one state or one-to-one two state model; conditions: both partners purified
His6-PP1α_(7-330) [3] = biological target: T1, His6-PP1α_(7-330); assay: as above; conditions: both partners purified; remark: listed apart in the source
PP1α_(7-330) = biological target: T2, PP1α_(7-330) (UniProt P62136 7-330); assay: SPR; His6-PP1 captured on Ni-NTA chip (NiHC200M), I3 variants injected; 25 °C; 20 mM Tris pH 8.0, 500 mM NaCl, 1 mM MnCl2, 0.5 mM TCEP, 0.05% Tween-20; one-to-one one state or one-to-one two state model (TraceDrawer); conditions: both partners purified
T2 construct: Protein Phosphatase 1 alpha (PP1α), residues 7-330; His6-PP1 was captured on the Ni-NTA sensor chip as the SPR ligand; Mn2+ in all buffers; also called Protein Phosphatase 1; His6-PP1; source: E. coli, purified (Ni-NTA, SEC)
T2 sequence (P62136 7-330): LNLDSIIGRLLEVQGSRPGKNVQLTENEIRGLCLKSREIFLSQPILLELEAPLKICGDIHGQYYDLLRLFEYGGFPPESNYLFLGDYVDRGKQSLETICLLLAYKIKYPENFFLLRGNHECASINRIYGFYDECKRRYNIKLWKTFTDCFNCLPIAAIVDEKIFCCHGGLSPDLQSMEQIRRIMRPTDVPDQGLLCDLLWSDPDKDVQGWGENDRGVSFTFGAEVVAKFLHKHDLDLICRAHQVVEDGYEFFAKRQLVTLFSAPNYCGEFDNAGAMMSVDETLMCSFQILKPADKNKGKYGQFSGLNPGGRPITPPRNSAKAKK

T1 sequence (P62136 7-330): as above

B1: SSC: I3_(27-68) C60S/C61S (domain or fragment, human, UniProt O60927 27-68, looked up)
chain: SLTIKLRKRKPEKKVEWTSDTVDNEHMGRRSSKSSCIYEKPR
notes: PPP1R11), human, residues 27-68; source: E. coli BL21 (DE3), purified (Ni-NTA, TEV, heat 95 °C, SEC); not shown: His6, N-terminal, cleaved; MBP, N-terminal, cleaved
For B1, the “IC50 of PP1 inhibition (dephosphorylation of the H3pT3 peptide, released Pi)” value (His6-PP1α_(7-330) [1]) was 349 nM, the Kd (His6-PP1α_(7-330) [2]) was 86.6 nM and the Kd (His6-PP1α_(7-330) [3]) was 86.8 ± 3.8 nM.

B2: SSS: I3_(27-68) C60S/C61S/C62S (domain or fragment, human, UniProt O60927 27-68, looked up)
chain: SLTIKLRKRKPEKKVEWTSDTVDNEHMGRRSSKSSSIYEKPR
notes: PPP1R11), human, residues 27-68; also called I3_(27-68)SSS; I3_(27-68) SSS; source: E. coli BL21 (DE3), purified (Ni-NTA, TEV, heat 95 °C, SEC); not shown: His6, N-terminal, cleaved; MBP, N-terminal, cleaved
B2 was tested, and the “IC50 of PP1 inhibition (dephosphorylation of the H3pT3 peptide, released Pi)” value (His6-PP1α_(7-330) [1]) was 380 nM and the Kd (His6-PP1α_(7-330) [3]) was 412 ± 6 nM.

B3: CCS: I3_(27-68) C62S (domain or fragment, human, UniProt O60927 27-68, looked up)
chain: SLTIKLRKRKPEKKVEWTSDTVDNEHMGRRSSKCCSIYEKPR
notes: PPP1R11), human, residues 27-68, C62S; source: E. coli BL21 (DE3), purified (Ni-NTA, TEV cleavage, heat, SEC); not shown: His6, N-terminal, cleaved; MBP, N-terminal, cleaved
In the case of B3, the Kd (PP1α_(7-330)) is reported as 16.1 nM and 17.4 nM and 28.3 nM.

B4: CSC: I3_(27-68) C61S (domain or fragment, human, UniProt O60927 27-68, looked up)
chain: SLTIKLRKRKPEKKVEWTSDTVDNEHMGRRSSKCSCIYEKPR
notes: PPP1R11), human, residues 27-68, C61S; source: E. coli BL21 (DE3), purified (Ni-NTA, TEV cleavage, heat, SEC); not shown: His6, N-terminal, cleaved; MBP, N-terminal, cleaved
B4 was tested, and the Kd (PP1α_(7-330)) was 20.1 nM and 18.7 nM and 17.5 nM.

B5: CSS: I3_(27-68) C61S/C62S (domain or fragment, human, UniProt O60927 27-68, looked up)
chain: SLTIKLRKRKPEKKVEWTSDTVDNEHMGRRSSKCSSIYEKPR
notes: PPP1R11), human, residues 27-68, C61S/C62S; also called I3_27-68_CSS; source: E. coli BL21 (DE3), purified (Ni-NTA, TEV cleavage, heat, SEC); not shown: His6, N-terminal, cleaved; MBP, N-terminal, cleaved
For B5, the Kd (PP1α_(7-330)) was 20.7 nM and 21.6 nM.

B6: IY: I3_(27-68) I63A/Y64A (domain or fragment, human, UniProt O60927 27-68, looked up)
chain: SLTIKLRKRKPEKKVEWTSDTVDNEHMGRRSSKCCCAAEKPR
notes: PPP1R11), human, residues 27-68, I63A/Y64A; also called I3_(27-68) IY; source: E. coli BL21 (DE3), purified (Ni-NTA, TEV cleavage, heat, SEC); not shown: His6, N-terminal, cleaved; MBP, N-terminal, cleaved
With B6 the Kd (PP1α_(7-330)) was 19 nM and 13.1 nM and 14.3 nM and 15.5 nM.

B7: SCS: I3_(27-68) C60S/C62S (domain or fragment, human, UniProt O60927 27-68, looked up)
chain: SLTIKLRKRKPEKKVEWTSDTVDNEHMGRRSSKSCSIYEKPR
notes: PPP1R11), human, residues 27-68, C60S/C62S; also called I3_27-68_SCS; source: E. coli BL21 (DE3), purified (Ni-NTA, TEV cleavage, heat, SEC); not shown: His6, N-terminal, cleaved; MBP, N-terminal, cleaved
With B7 the Kd (PP1α_(7-330)) was 45.5 nM and 63.4 nM and 53.1 nM.

B8: SSC: I3_(27-68) C60S/C61S (domain or fragment, human, UniProt O60927 27-68, looked up)
chain: SLTIKLRKRKPEKKVEWTSDTVDNEHMGRRSSKSSCIYEKPR
notes: PPP1R11), human, residues 27-68, C60S/C61S; also called I3_27-68_SSC; source: E. coli BL21 (DE3), purified (Ni-NTA, TEV cleavage, heat, SEC); not shown: His6, N-terminal, cleaved; MBP, N-terminal, cleaved
B8 was tested, and the Kd (PP1α_(7-330)) was 88 nM and 81.1 nM and 88.3 nM and 89.6 nM.

B9: SSS: I3_(27-68) C60S/C61S/C62S (domain or fragment, human, UniProt O60927 27-68, looked up)
chain: SLTIKLRKRKPEKKVEWTSDTVDNEHMGRRSSKSSSIYEKPR
notes: PPP1R11), human, residues 27-68, C60S/C61S/C62S; also called I3_27-68_60SSS62; I3_(27-68) SSS; source: E. coli BL21 (DE3), purified (Ni-NTA, TEV cleavage, heat, SEC); not shown: His6, N-terminal, cleaved; MBP, N-terminal, cleaved
In the case of B9, the Kd (PP1α_(7-330)) is reported as 409 nM and 421 nM and 406 nM, the koff (PP1α_(7-330)) is reported as 0.0719 s⁻¹ and 0.0774 s⁻¹ and 0.0728 s⁻¹ and 0.074 s⁻¹ and the kon (PP1α_(7-330)) is reported as 176000 M⁻¹ s⁻¹ and 184000 M⁻¹ s⁻¹ and 179000 M⁻¹ s⁻¹ and 180000 M⁻¹ s⁻¹.

B10: CCC_(deletion): I3_(27-59) (Δ60-68) (domain or fragment, human, UniProt O60927 27-59, looked up)
chain: SLTIKLRKRKPEKKVEWTSDTVDNEHMGRRSSK
notes: PPP1R11), human, residues 27-59; also called CCCdead: I327-59 (Δ60-62); I3 27-59 (CCC dead); source: E. coli BL21 (DE3), purified (Ni-NTA, TEV cleavage, heat, SEC); not shown: His6, N-terminal, cleaved; MBP, N-terminal, cleaved
For B10, the Kd (PP1α_(7-330)) was 447 nM and 329 nM and 352 nM, the koff (PP1α_(7-330)) was 0.0749 s⁻¹ and 0.0798 s⁻¹ and 0.0752 s⁻¹ and 0.0766 s⁻¹ and the kon (PP1α_(7-330)) was 168000 M⁻¹ s⁻¹ and 242000 M⁻¹ s⁻¹ and 213000 M⁻¹ s⁻¹ and 208000 M⁻¹ s⁻¹.
